One substance from patent publication US20240352132A1 can be followed below.

Test [1] deals with HGFR protein extracellular domain with the His tag (human) (UniProt P08581). As to the kind of experiment: competition ELISA, blocks bio-HGF-His on coated HGFR-His.
For test [2] the target is unchanged. As to the kind of experiment: SPR Biacore T200, antibody captured on Protein A, antigen in flow, 1:1 fit.
Test [3] deals with human EGFR protein extracellular domain with the His tag (human) (UniProt P00533). Described as above.

On to MCLA (bispecific antibody), for which, in test [1], the IC50 came to 1.36 µg/mL and the Max (%) turned out to be 94.1%. In test [2], the Kd amounted to 10.3 nM, the off-rate (koff) worked out at 0.000303 s⁻¹ and the kon was 29500 M⁻¹ s⁻¹. In test [3], this substance gave a Kd of 69.1 nM, an off-rate (koff) of 0.00473 s⁻¹ and a kon of 68500 M⁻¹ s⁻¹.
